From article PMC5299495, “Co‐immobilized Phosphorylated Cofactors and Enzymes as Self‐Sufficient Heterogeneous Biocatalysts for Chemical Processes” (Angewandte Chemie (International Ed. in English), 2016)

Substrate: NC(=O)c1ccc[n+]([C@@H]2O[C@H](COP(=O)(O)OP(=O)(O)OC[C@H]3O[C@@H](n4cnc5c(N)ncnc54)[C@H](O)[C@@H]3O)[C@@H](O)[C@H]2O)c1
Test: steady-state kinetics, soluble enzyme and soluble NAD+
Format: biochemical, [Candida] boidinii
Conditions: free enzyme; co-substrate formate

B1: Cb‐FDH ([Candida] boidinii) (protein)
chain: MKIVLVLYDAGKHAADEEKLYGCTENKLGIANWLKDQGHELITTSDKEGETSELDKHIPDADIIITTPFHPAYITKERLDKAKNLKLVVVAGVGSDHIDLDYINQTGKKISVLEVTGSNVVSVAEHVVMTMLVLVRNFVPAHEQIINHDWEVAAIAKDAYDIEGKTIATIGAGRIGYRVLERLLPFNPKELLYYDYQALPKEAEEKVGARRVENIEELVAQADIVTVNAPLHAGTKGLINKELLSKFKKGAWLVNTARGAICVAEDVAAALESGQLRGYGGDVWFPQPAPKDHPWRDMRNKYGAGNAMTPHYSGTTLDAQTRYAEGTKNILESFFTGKFDYRPQDIILLNGEYVTKAYGKHDKK
notes: free soluble enzyme
- Km: 85 ± 0.9 µM
